Measured values taken from patent publication US20200223906A1 (Adimab, published 2020).

How the values were obtained:
[1] = biological target: RSV F protein of subtype B (18537) on recombinant mKate-RSV (respiratory syncytial virus subtype B …, UniProt P13843 26-574); test: cell-based or functional assay
[2] = biological target: RSV F protein of subtype A (strain A2) on recombinant mKate-RSV (respiratory syncytial virus subtype A …, UniProt P03420 26-574); test: cell-based or functional assay
[3] = biological target: RSV F protein of subtype B (18537) on recombinant mKate-RSV virus (Respiratory syncytial virus subtype B …, UniProt P13843 26-574); test: cell-based or functional assay
[4] = biological target: RSV F protein of subtype A (strain A2) on recombinant mKate-RSV virus (Respiratory syncytial virus subtype A …, UniProt P03420 26-574); test: cell-based or functional assay
[5] = biological target: T1, RSV F subtype B, furin-cleaved ectodomain stabilized in the prefusion conformation (DS-Cav1) (Respiratory syncytial virus subtype B); test: BLI, IgG on AHQ sensor, 100 nM antigen
T1 construct: extracellular domain; Trimeric soluble antigen; also called Prefusion subtype B

[6] = biological target: T2, RSV F subtype A, furin-cleaved ectodomain stabilized in the prefusion conformation (DS-Cav1) (Respiratory syncytial virus subtype A, UniProt P03420 26-524); test: BLI, IgG on AHQ sensor, 100 nM antigen
T2 construct: extracellular domain; Trimeric soluble antigen; also called Prefusion subtype A

Binder	Neut IC50 subtype B [1] [µg/mL]	Neut IC50 subtype A [2] [µg/mL]	Neut IC50 (µg/ml) subtype B [3] [µg/mL]	Neut IC50 (µg/ml) subtype A [4] [µg/mL]	Kd [5] [nM]	Kd [6] [nM]
ADI-19006 (antibody, V domains shown) VH: EVQLVESGGGLVKPGESVKLSCAASGFTITDSYMAWIRQSPGKGLEWLAYISSTSLFTDYTDSVKGRFIITRDNAENSLYLQMTSLTPADTGVYFCARAKTSYYFYALDVWGPGTLVTVSS VL: ETTLTQSPGTLSLSPGERATLSCRASQSVNNNYLAWFQHKPGQAPRLLIYNASNRAAGIPDRFSGSGSGTDFTLTISKLEPGDSAVYYCQRYGNSWPFGQGTKVEIK	5.06	4.89				
ADI-18997 (antibody, V domains shown) VH: QVQLQQWGAGLLKPSETLSLTCAVSGGYFINDNWSWIRQSPGKGLEWIGEISHSGSTNYNPSLKSRLTISVDTSRQQFSLKLSSVTAADSGVYYCARVHPSYDFGWRFFDFWGQGTLVTVSS VL: ETTLTQSPATLSVSPGDTATLSCRASQTISSNLAWYQQKPGQPPSLLIYGASNRATGIPDRFRGSGSGTEFTLTISSLQSEDFAVYYCQQYAYWPPYTFGQGTKVEIK	> 10	> 10				
ADI-18979 (antibody, V domains shown) VH: EVQLLESGAEVKKPGASVKISCKASGYIFTSYGVSWVRQAPGQGLKWMGWISGYNGNTYYDQKFQGRVTMTTDTSTNTAYMELRSLTSDDTAVYYCARDSFSETGTGFPDFWGQGTLVTVSS VL: EIVLTQSPLSLPVTLGQPASISCRSSQSLEYSDGNTYLNWFQQRPGQSPRRLIYKVSNRDSGVPDRFSGSGSGTDFTLKISRVEAEDVGVYYCMQATHRPRTFGQGTKVDIK	0.031	0.012				
ADI-18991 (antibody, V domains shown) VH: EVQLVESGPGLVKPSETLSLSCIVSGDSITSNDYYWSWIRQSPGKGLEWIGYIYHSGATFYTPSLRSRVTISTDRSKNQFSLRLSSVTAADTAVYYCASGPVGMATSNWFDPWGQGTLVTVSS VL: QPVLTQPPSVSVAPGKTATLTCGGDIIRTNSVNWYQQKPGQAPVLIIYYDSDRPSGIPGRFSASNSGSAATLTISRVEAGDEADYYCQVWDSSTDYHVVFGGGTKLTVL	0.228	0.028				
ADI-19005 (antibody, V domains shown) VH: QVQLVQSGAEVKKPGASVRVSCKASGYTFTDYFMNWVRQAPGGGLEWMGWINPLSGVTKYAQQFQGSVTMTTDTSITTGYMELRSLRVDDTAVYYCASQSSPYTPGAMGVWGQGTTVTVSS VL: DIRMTQSPSSLSASVGDRVTITCRTSQSVSGYLSWYQQKPGKAPKLLIYAASNLYSGVPSRFSGSGSGTDFTLTITSLQPEDFATYFCQLNSGALFTFGPGTKVEIK	0.11	0.041				
ADI-19002 (antibody, V domains shown) VH: EVQLVESGPGLVKPSETLSLTCTVSGGSVSGHYWSWIRQFPGKELEWIGHIYYIGTTNYNPSLKSRVIISLDTSKNQLSLKLSSVTAADTAVYYCARQFGYDKNTLSRLDFDYWGQGTLVTVSS VL: DIQMTQSPSSLSASVRDRVTITCRASQSISSYLNWYQQRPGKAPKLLIYSAFSLHSGVPSRFSGSGSETEFTLTISSLQPDDFATYYCQQSYSIPWTFGQGTKVEIK	4.51	2.89				
ADI-19004 (antibody, V domains shown) VH: QVQLVQSGAEVKKPGASVKVSCKTSGYTFSHFGVTWIRQAPGQGLEWLGWISAYNGNTDSADKLQGRLTMTTDTSTNTAYMELRSLRSDDTAVYYCARDPPASAAAMLDYWGQGTLVTVSS VL: DIQMTQSPLSLAVTLGQPASISCRSSQGLEYTDGNTYLSWFQQRPGQSPRRLIYKVSNRDSGVPDRFSGSGAGTDFTLRISRVEAEDVGVYYCMQGTHGRGISFGPGTKVDIK	0.128	0.02				
ADI-18926 (antibody, V domains shown, full-length IgG from yeast; also called Antibody Number 280; Ab # 280) VH: EVQLVESGAEVKKPGASVKVSCQTSGYTFSHFGVTWIRQAPGQGLEWLGWISAYNGNTDYADKLQGRLTMTTDTSTNTAYMELRSLRSDDTAVYYCARDPPASAAAMLDYWGQGTLVTVSS VL: DIVMTQSPLSLAVTLGQPASISCKSSQGLEYTDGNTYLSWFQQRPGQSPRRLIYKISNRDSGVPDRFSGSGSGTDFTLRISRVEAEDVGVYYCMQGTHGRGISFGPGTKVDIK			0.092	0.023	0.25	0.252
ADI-18985 (antibody, V domains shown) VH: QVQLVQSGPEVKKPGASVKVSCEASGYTFTDFFVHWVRQAPGEGLVWLGWVNPLSGATKYAQNFQGRVTMTSDTSITTAYMALSSLRHDDTAVYYCTSQTSPYTPGAMGVWGQGTTVTVSS VL: DIRVTQSPASLSAFVGDRVTITCRASPAISGYLSWYQQKAGKAPKILIYDASNLYSGAPSRFSGSRSGTDFTLTITSLQPEDFATYYCQQTYNGLIAFGPGTKVEIK	0.09	0.034				
ADI-18988 (antibody, V domains shown) VH: EVQLVESGGGLVRPGGSLRLSCAASGFSLSSYGMSWVRQAPGKGLEWVSSITAGSSYINYADSVKGRFTISRDNAKSSLFLQMTSLRVEDTAVYFCVREAYASSSALYWFDPWGQGTLVTVSS VL: QSVLTQPPSVSGAPGQRVTISCTGSSSNLGAGYVVHWYQQLPGTSPKLLIYGNTDRPSGVPDRFSGSKSGTSASLAISGLQAEDEADYYCQSYDSSLSGWVFGGGTKLTVL	0.37	0.089				
ADI-18993 (antibody, V domains shown) VH: EVQLVESGGGLVKPGGSLRLSCAASGFTLSSYAMNWVRQAPGKGLEWVSSISAGSSYIDYADSVKGRFTISRDNAKNSLYLQMNNLRAEDTALYYCAREVLPATAIGGAWLDPWGQGTLVTVSS VL: QSVLTQPPSVSGAPGQTVTISCTGSSSNIGAGYDVHWYRQLPGTAPKLLIYSNNNRPSGVPDRFSGSKSDTSASLAITGLQAGDEADYYCQSYDISLSASYVFGTGTKVTVL	0.128	0.078				
ADI-18994 (antibody, V domains shown) VH: QVQLVQSGAEVKKPGASVKVSCKASGYTFTNYGFSWVRQAPGQGLEWMGWILTHNGYTNYAQKFQDRVTMKTDTSTSTVYMELRSLRSVDTAVYYCARIGHVTAVAGAPPDYWGQGTLVTVSS VL: QPVLTQPASVSGYQGQSITISCSGTSSDVGTYNLVSWYQQHPGKAPELMIYEGSKRPSGVSDRFSGSKSGNTASLTISGLQAEDEADYYCCSYVAGSTSVFGGGTKLTVL	0.108	0.047				
ADI-18996 (antibody, V domains shown) VH: QVQLVQSGAEVKRPGASVKVSCKASEYAFTAHYLHWVRQAPDQGLEWMGWISPKSGGTNYAQKFHGRVSMTSDTSISTVYMELSSLTSDDTAVYYCARSSLVGASPNFDFWGQGTLVTVSS VL: QSVVTQPPSVSAAPGQRVTISCSGSSSNIGNNYVSWYQQLPGSTPKVLIYDNNQRPSGIPDRFSGSKSGTSATLAISGLQTGDEAVYYCGTWDASLSAAMVFGGGTKLTVL	> 10	> 10				
ADI-18986 (antibody, V domains shown) VH: EVQLLESGGGVVQPGKSLRLSCAASGFTFNTYAIHWVRQAPGKGLEWVAAISYDGSNEYYSNSVKGRFTISRDNSKYTLELQMNSLRPEDTAVYYCARGASYYYVSSDLGYWGQGTLVTVSS VL: QSVVTQPPSVSGAPGQRVTISCTGSSSNIGSGYDVHWYQQLPGTAPKVVIYGNINRPSGVPERFSGSKSGTSASLAITGLQAEDEADYYCQSYDSLSASWVFGGGTKLTVL	0.123	0.464				
ADI-18983 (antibody, V domains shown) VH: EVQLVESGGGVVQPGRSLRLSCAASGFTFSSFSMHWVRQAPGKGLEWVALISSDERNSYYADSVKGRFTISRDNSKNTLYLQISRLKVEDTAVYYCAREAYEEWELTMGNLDHWGQGTLVTVSS VL: DIQLTQSPSSLSASVGDRVTITCRASQGIGNDLGWYQQKPGKAPKRLIYSTYSLQSGVPSRFSGSGSGTEFTLTISSLQPEDFATYYCLQHNRYPFTFGPGTKLEIK	0.075	0.028				
ADI-18987 (antibody, V domains shown) VH: QVQLVQSGAEVKKPGSSVKVSCKASGGTFSGHAINWVRQAPGQGLEWMGGIIHIFGTVNYAPKFQGRVTITADASTGTVYMELSSLISEDTAVYYCARDAYEVWTGSYLPPFDDWGQGTLVTVSS VL: DIVMTQSPGTLSLSPGDRVTLSCRASQTVTSSYLAWYQQKPGQAPRLLIYGAFTRATGIPDRFSGSGSGTDFTLSISRLEPEDFAVYYCQQYGSSFLTFGGGTKVDIK	0.027	0.015				
ADI-18978 (antibody, V domains shown) VH: EVQLVESGGGVVQPGRSLRLSCEASGFTFSSFSMHWVRQAPGKGLEWVAVILYDGSNQYYADSVKGRFTISRDNSKNTLYLQMNTLRAEDTAMYYCAKSSSSHVNSRQDKWGQGTLVTVSS VL: EIVLTQSPSTLSASVGDRVTITCRASQSISRWLAWYQQKPGEAPKLLIHTASTLESGVPSRFSGSGSGTEFTLTINSLQPDDLATYYCQQYYNWWTFGQGTKVEIK	> 10	> 10				
ADI-19003 (antibody, V domains shown) VH: QVQLQESGPGLVKPSETLSLTCSVSGGSITNVNYYWGWIRQPPGKGLEWIGSIYYNGNTYYNPSLQSRVTMSVDTSKNHFSLRLTSVTAADTAVYFCAREGPNWELLNAFDIWGQGTTVTVSS VL: SYELTQPPSVSVAPGQTARITCGGNNIGSKNVHWYQQKPGQAPVLVVYEDTHRPSGIPERFSGSNSGNTATLTISRVEAGDEADYYCQVWDTSSDHVVFGGGTKLTVL	0.125	0.047				
